Measurements reported in a protein production outcome set (Wang et al. 2014).

Assay: label from the status in PepcDB records

Row | Sequence | protein production
1 | MIFLSTVLILCCTWYFLKFLAHFSRKIHDEVRKLSVYTHFLSKWLQSAPATFTYTAIFCAFTLVQRTAPQHLINILTNHSSTSIARVSDKPISTFFDSAFWVADNGAGLLIYVVLFWTVIAWAERKYGSPRMIVITLSGHILASLTTIFLELWAINSGRAPSSLAMATDVGVSYILVAGCAAAILIMRKRMFYIGLIILGLFILLPLFVEHSIWDMGHLFAAFFGFISARLLLKLSPVRTVSSPYELLLKCRSELSNK | failed
2 | MQGLVNMVYQQTERLGYKNLEMIKGLDRTENYSKLKKYYRSCVKEYELSNKAIEEAKGFASSKAYRSASEAAARAFDSISMCEAYLEGSKTPGYVTTRNWWFERMCDIDKIFTDLLISAKF | failed
3 | MAAADAEAVPARGEPQQDCCVKTELLGEETPMAADEGSAEKQAGEAHMAADGETNGSCENSDASSHANAAKHTQDSARVNPQDGTNTLTRIAENGVSERDSEAAKQNHVTADDFVQTSVIGSNGYILNKPALQAQPLRTTSTLASSLPGHAAKTLPGGAGKGRTPSAFPQTPAAPPATLGEGSADTEDRKLPAPGADVKVHRARKTMPKSVVGLHAASKDPREVREARDHKEPKEEINKNISDFGRQQLLPPFPSLHQSLPQNQCYMATTKSQTACLPFVLAAAVSRKKKRRMGTYSLVPKKKTKVLKQRTVIEMFKSITHSTVGSKGEKDLGASSLHVNGESLEMDSDEDDSEELEEDDGHGAEQAAAFPTEDSRTSKESMSEADRAQKMDGESEEEQESVDTGEEEEGGDESDLSSESSIKKKFLKRKGKTDSPWIKPARKRRRRSRKKPSGALGSESYKSSAGSAEQTAPGDSTGYMEVSLDSLDLRVKGILSSQAEGLANGPDVLETDGLQEVPLCSCRMETPKSREITTLANNQCMATESVDHELGRCTNSVVKYELMRPSNKAPLLVLCEDHRGRMVKHQCCPGCGYFCTAGNFMECQPESSISHRFHKDCASRVNNASYCPHCGEESSKAKEVTIAKADTTSTVTPVPGQEKGSALEGRADTTTGSAAGPPLSEDDKLQGAASHVPEGFDPTGPAGLGRPTPGLSQGPGKETLESALIALDSEKPKKLRFHPKQLYFSARQGELQKVLLMLVDGIDPNFKMEHQNKRSPLHAAAEAGHVDICHMLVQAGANIDTCSEDQRTPLMEAAENNHLEAVKYLIKAGALVDPKDAEGSTCLHLAAKKGHYEVVQYLLSNGQMDVNCQDDGGWTPMIWATEYKHVDLVKLLLSKGSDINIRDNEENICLHWAAFSGCVDIAEILLAAKCDLHAVNIHGDSPLHIAARENRYDCVVLFLSRDSDVTLKNKEGETPLQCASLNSQVWSALQMSKALQDSAPDRPSPVERIVSRDIARGYERIPIPCVNAVDSEPCPSNYKYVSQNCVTSPMNIDRNITHLQYCVCIDDCSSSNCMCGQLSMRCWYDKDGRLLPEFNMAEPPLIFECNHACSCWRNCRNRVVQNGLRARLQLYRTRDMGWGVRSLQDIPPGTFVCEYVGELISDSEADVREEDSYLFDLDNKDGEVYCIDARFYGNVSRFINHHCEPNLVPVRVFMAHQDLRFPRIAFFSTRLIEAGEQLGFDYGERFWDIKGKLFSCRCGSPKCRHSSAALAQRQASAAQEAQEDGLPDTSSAAAADPL | failed
4 | MRLEKGMPLKRQIRLKTAIILPFVLTFLFMILAMAAVQTYRYEQTVKELSSKKLSYLTDSISQRLSDFLNRPFFANQMIAYNVGFHHLYQLNDVSRIEDFIRAAANPIGNNIQQIDVVGFGGVNGEYVGLRRDAPEQYSLMLKDARTDDKLVIYQTATKNDQLRTVIDNYDPRVRPWFAPVAQKPSPQWSSVYTNMDEKQEITLSALSPVFQDKRFIGVMVSDVKLNTFNQFLSELKQRMNADVYVMDKQHRLIAHSGEGSVVSWGTPLSPKGERLFASENRNPIIRSSAEQLDLQGLNVGTFTTYVNQQRYFNQASAFTDQYGLTWYISVSIAEGDLLGSLPENQKTSWAIGLLVSLVGLGLGLMALNRVANPIISTASAARQLANGDWTASMPKPGKIYETSLLVQAFIEMTNSLKASFKALRSQLVYDSLTQLLSREGLVEHCHQIPQLNGGLILIGIDKFRDINDSLGHHQADQLLVAIAQRLKVTFPEPALIARIGGDEFAIYLPDVNQQDDLKSVATDILKLFASPFSMPSDNIAVNVSIGIVYLEEPNMTVWLRNGSIALSNAKAEHTHISFYSPEMANASRKRMLMVTQIKLALDNQEFVPFYQPIVDLNSGEVLGAEALARWISPEFGLIPPMDFIPIAEESGLINAIGEQILRQACADTVRGIAENKWPSTFHMHVNLSVNQLSHPDFIAQLHSVLDESGLQPTNLTLEITESRIVDNDPVILHNMLELKKARIHIAIDDFGTGYSSLAYLHKLPFDCLKIDREFVSQLNAYNIENSVVAAIVNMTRGFKVELVAEGIETQEQVDLLNQLGCPRGQGFLFSKPMAYQDWPTDLVNMKQS | failed
5 | MELKNVKDAFDRVTKKQKLCYSKTHEVVDKMSQEIDKALKTIQEDNHESVVADLKKTFEEIAPINLLEASQKEINGVLTKYPKALDKTLNPDISTAYRNVKFDTHTVHQILAQFFYRQGMYDVGDCFISETGEVKPESSVTKAFMEMNMILEAMKERDLGPALKWVASNSDKLKEAKSDLELKLHSLHFLEIAKDKTSEEAINYARKHFATYSADSCCFPEIQKLMCSLLWIRNLNKSPYSEFLSPVLWTNAAKELTRQYCILLGESPESPLSVTVAAGSQVLPTFLKYLNVLPEKRKEWQTMEQLLVPVELSEEYRFYSVFVCPVSKEHSSEDNPPMRLACGHVLCKQSINRMSRNGSRSFKCPYCPTDIDASQCKQLYF | failed
6 | MVKCLSAHNKAPHVSVITPSYNSIRFIGETIVSVQNQSYENWEMIIVDDASTDESVTKIKEIIEGDSRIRLVSLKENIGAAKARNIAIQEARGRYIAFLDSDDIWLPHKLKTQLLFMEEMSVAFSYASYSLIDENGNGLNREVNVPKSVDYHCLAGNTIIGCLTVIIDREKIPHIEMPSVQPEDTALWLKLLHEGHEAKGIQQVLAKYRIVANSVSRNKIKAAFRYWKLLRDQKCLNAVQIFYYFSKYAYHAYRKNKINVVGKTQL | failed
7 | MRIFGKARHRPSASWRQATDRAFTLIGDGRYEDAGALLTRAADLEPWLSESWFNLALLHKFRHDWEQARAAGLRAVALLDRDIGAPDWWNVGIAATALQDWPLARRAWQAYGLRTPGGATDAGEPLGMDLGSAAVRLSPEGEAEVVWGRRLDPARVEVLSIPLPSSGRRWGEVVLHDGVPHGERTTSAGHSYPVFDEIELWAPSPVPTWVVLLEAATESDRDALEQLAADAGFAAEDWSSSVRLLCRMCSESRMPSDEGDGEHLDPHDHSEPGHPGPLGHRTDGQLWVPERECGVAAPAGLVKGLLDGWVADSPDSRDWRDLEEVC | failed
8 | MAKEVVYRGSARQRMMQGIEILARAAIPTLGATGPSVMIQHRADGLPPISTRDGVTVANSIVLKDRVANLGARLLRDVAGTMSREAGDGTTTAIVLARHIAREMFKSLAVGADPIALKRGIDRAVARVSEDIGARAWRGDKESVILGVAAVATKGEPGVGRLLLEALDAVGVHGAVSIELGQRREDLLDVVDGYRWEKGYLSPYFVTDRARELAELEDVYLLMTDREVVDFIDLVPLLEAVTEAGGSLLIAADRVHEKALAGLLLNHVRGVFKAVAVTAPGFGDKRPNRLLDLAALTGGRAVLEAQGDRLDRVTLADLGRVRRAVVSADDTALLGIPGTEASRARLEGLRLEAEQYRALKPGQGSATGRLHELEEIEARIVGLSGKSAVYRVGGVTDVEMKERMVRIENAYRSVVSALEEGVLPGGGVGFLGSMPVLAELEARDADEARGIGIVRSALTEPLRIIGENSGLSGEAVVAKVMDHANPGWGYDQESGSFCDLHARGIWDAAKVLRLALEKAASVAGTFLTTEAVVLEIPDTDAFAGFSAEWAAATREDPRV | failed
9 | MAIASSSPSSSSNVSVIPTGPQVFISFRGKELRKGFISFLVPALKKKNINVFIDEHEVRGKDLISLFRRIGESKIALVIFSEGYTESKWCLDELVQIKKCVDQKKIIAIPIFYKLDPAVVKGLKGKFGDKFRDLIERYHHEPERYQKWTEALTSVSRTFALCLPEHRLRFFNHKNCLFLVAQDTNDKSEKDFIRSIIKEVKKALSNISRERNGDREEIDDCFVVSERKLTTDMYDTPE | failed
10 | MRGDDMHIYELVSRDRTHPVRIYLLHSEYWTEDEFYNLLLEAFQRSSASDWHLQILEVSKYLVTAHGFVEAGGLQEIGFPGELSKTEVRRRINAFLGKDRSD | not failed
11 | MKLKYCHYAYDDEGYVIHMLTSNERTFFTNAYIIETKNSIVVVDTLMVNSDAILLRQYMDNINKPLIAVIITHGHPDHYNGTEIITGFKEVPIISTKGIRDCIQDTVDSKEVKWKPYFGQDWPEHKILPNQLVIDSEVVNLDGLDYSFRDLGAAESSSDLFFTLGEKRSVIFVGDVVFNNMHGFMNDGNSAQWLKVLQKLLTEIADVKLLFTGHGDPGDTHQLVQRQIDYISHYRSNLLAIIRGNQLEHHHHHH | failed
12 | YETIIIHRHQRPDPDAIGSQVGLAELLRASFPEKNIYQVGGPVEGLEFLAEMDVITDDVYRGALVIVTDTANAPRISDARFSLGDQLIKIDHHPNDEPYGDLVWVNTNASSCSEIIVDFWQQHLAELTMTDNAARLLYAGIVGDTGRFLYPSTSAHTLAVAAQLRTFNFNAADLNRELDQMP | not failed
13 | DCLLPIVAAPMAGGPTTVALAQAVSGVGGFPFLAGGYKSVEALATEIAVLRASGGNFGVNLFVPSPDMVDAEAFRIYAAKLQSEALPYGLRLDPLPVMGDDDGWPDKLALLLNDPVPVVSFTFGLPAVRDIAALRCAGSRVLASVTLPAEAQAAMEAGVDGLVVQGPDAGGHSATYDPGRPFTPLKTVSLVRRVCAVSSLPVIAAGGVDGPVMVRALLQAGAAAVAIGTLLLRTKESGATQVHKDALANPAYTETVITHAFTGRPARTLRNGFVNRYHASAPLGYPAIHHLTRPLRQAAASAGDADVLHLWAGTGYRQAMDGSAVDVIQ | failed
14 | MEANSGGGGGAEGGRAVTGGGGGGGGSDVELVSKTLQVEHKLFYFDLKENPRGRYLKISEKTSATRSTIIVPSSGISWFLDLFNYYVNSEEHELFSKELQLDSKVFYFDIGENRRGRFLKVSEASVSRNRSTIIVPAGSSPDEGWAAFRNILAEIHEASGLFVMPNQKPSDGQEHLVDDVGAGFIPGHGSQQPSSSEHNVDRTIDSPGSDRSSIILPLSGLKQFHEVIGHFVEITKDKIEVLILLEDGNFQSSNHLNLATSSRLPDRGVQ | failed
15 | MFQSKSRTSLTNKKTLLFGLISVFLCGMGFSIIMPVVPFLVTPYVTNASDQALMVTLLTSVYAFCVFFAAPGLGALSDRFGRRPVLLICFIGSAIGYFIFGLGGALWVLFLGRIIEGITGGSISTLFAFFADITPQEERTKYFGWVSAAAGAGAALGPAFGGLLAHFGYAMPFFFGATITFINFLFGYFYMPESLDDANRLKRIPLMRLNPFSQLLNILTIKNLGRLLIAAFFIWVPNGSLQAVMSQFAIDSFSWKPALIGMMFSIMGIQDILSQAFVMPKLLIRLTDKQIAVLGMIAEIIGYSLIATSSIFTLAPLLVIGMFVFGFGDSIFGPSFNGMVSKAASASEQGRIQGGSQAIQSLARIIGPIIGGQIYITLGHAAPAIMGVLLITVAIFILYKKTSLAK | failed
16 | MVADKSKKSKIEEKGEEENLEQIDAELVLSIEKLQEIQDDLEKINEKASDEVLEVEQKYNVIRKPVYDKRNEVIQSIPGFWMTAFLSHPALGDLLTEEDQKIFKYLNSLEVEDAKDVKSGYSITFHFTSNPFFEDAKLTKTFTFLEEGTTKITATPIKWKEGKGLPNGVNHDDKKGNKRALPEESFFTWFTDAQHKEDAGDEIHDEVADIIKEDLWSNPLTYFNNDADEEDFDGDDDGDEEGEEDDDDEEEEDGEE | failed
17 | MNDRARELASRLIRNFNEASLEHEVREPLYESAAARLGTGTVAHKLGASVDVVAPGKRSCPYHFHHAQEEMFVIIEGEGSLRVAGEMLPIKTGDVLFIPAGPEYPHQIINTSQAPLKYLSISTRETPEVCEYPDSGKYQAMVSANGARVFTANQRTTENVDYWDGEPLEHHHHHH | not failed
